The record followed here is US20220220218A1 (JIANGSU HENGRUI MEDICINE, published 2022).

Test [1] has as its target human CD73 on tumor cell line MDA-MB-231 that highly expresses human CD73 (human) (UniProt P21589). The test is described as follows: cell-based or functional assay.
In test [2] the target is T1, human CD73 (huCD73) protein, antigen of the Biacore assay (human, UniProt P21589 27-547, limits assumed).
T1 construct: also called human CD73 antigen
T1 sequence (looked up): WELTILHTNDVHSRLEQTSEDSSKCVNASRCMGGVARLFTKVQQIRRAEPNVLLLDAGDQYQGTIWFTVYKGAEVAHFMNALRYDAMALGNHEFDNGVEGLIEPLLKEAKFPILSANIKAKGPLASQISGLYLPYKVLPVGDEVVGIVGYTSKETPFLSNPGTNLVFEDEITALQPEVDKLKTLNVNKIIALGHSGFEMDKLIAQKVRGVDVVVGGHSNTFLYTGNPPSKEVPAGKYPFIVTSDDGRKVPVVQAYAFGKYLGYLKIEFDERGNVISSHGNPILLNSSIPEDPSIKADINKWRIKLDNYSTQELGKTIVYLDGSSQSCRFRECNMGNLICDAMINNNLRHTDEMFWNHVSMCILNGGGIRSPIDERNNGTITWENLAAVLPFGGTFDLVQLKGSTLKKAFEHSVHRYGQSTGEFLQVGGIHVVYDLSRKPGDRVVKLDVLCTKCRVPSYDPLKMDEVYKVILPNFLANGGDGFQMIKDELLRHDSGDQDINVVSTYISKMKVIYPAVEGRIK
The test is described as follows: SPR Biacore T200; antibody captured on Protein A chip, CD73 in flow; 1:1 Langmuir. From the text:
In this experiment, Biacore instrument was used to determine the affinity of the humanized anti-CD73 antibodies to be tested with human CD73 (huCD73) and monkey CD73 (cynoCD73).
A certain amount of test antibody was affinity-captured with Protein A biosensing chip (Cat. #29127556, GE), and then a certain concentration of human or monkey CD73 antigen was allowed to flow through the surface of the chip. The reaction signals were detected in real time with Biacore instrument (Biacore T200, GE) to generate a binding and dissociation curve. At the end of each cycle, after the dissociation was completed, the biosensor chip was washed and regenerated with Glycine-HCl, pH1.5 (Cat. #BR-1003-54, GE). The running buffer for the assay was 1×HBS-EP buffer solution (Cat. #BR-1001-88, GE).
The data obtained from the experiment was fitted against (1:1) Langmuir model using GE Biacore T200 Evaluation version 3.0 software, and the affinity values were obtained, as shown in Table 12 and Table 13 for details.

On to “MEDI9447 (antibody MEDI9447 disclosed in patent application WO2016075099)”, for which, in test [1], the IC50 (nM) in the assay showing the inhibition of enzyme activity in MDA-MB-231 cell was 0.565 nM.

B1: Hab108.52 (antibody, V domains shown)
VH: EVTLKESGPVLVKPTETLTLTCTVSGFSLSSYGIQWIRQPPGKLLEWLAVIWSGGSADYNAAFISRLTISKDTSKSQVVLTMTNMDPVDTATYYCAGQYGSVWGQGTLVTVSS
VL: DIQMTQSPSSLSASVGDRVTITCRASQDIGDRLNWLQQKPGKAIKRLIYATSSLDSGVPKRFSGSGSGTEYTLTISSLQPEDFATYYCLQYAGSWTFGGGTKVEIK
notes: VL5 + VH2; full-length antibody
In test [2], B1 registered a Kd of 0.93 nM, a koff of 0.000241 s⁻¹ and a kon of 260000 M⁻¹ s⁻¹.

B2: Hab108.65 (antibody, V domains shown)
VH: EVTLKESGPVLVKPTETLTLTCTVSGFSLKSYGIQWVRQPPGKLLEWLGVIWSGGSADYNAAFISRLTISKDTSKSQVVLTMTNMDPVDTATYYCAGQYGSVWGQGTLVTVSS
VL: DIQMTQSPSSLSASVGDRVTITCRASQDIGDRLNWLQQKPGGAIKRLIYATSSLDSGVPKRFSGSGSGTEYTLTISSLQPEDFATYYCLQYAGSWTFGGGTKVEIK
notes: VL6 + VH5; full-length antibody
As for B2, in test [2], the Kd stood at 0.246 nM, the off-rate (koff) is 6.93e-05 s⁻¹ and the kon came out at 281000 M⁻¹ s⁻¹.

B3: Hab108.53 (antibody, V domains shown)
VH: EVTLKESGPVLVKPTETLTLTCTVSGFSLSSYGIQWVRQPPGKLLEWLGVIWSGGSADYNAAFISRLTISKDTSKSQVVLTMTNMDPVDTATYYCAGQYGSVWGQGTLVTVSS
VL: DIQMTQSPSSLSASVGDRVTITCRASQDIGDRLNWLQQKPGKAIKRLIYATSSLDSGVPKRFSGSGSGTEYTLTISSLQPEDFATYYCLQYAGSWTFGGGTKVEIK
notes: VL5 + VH3; full-length antibody
In test [2], B3 yielded a dissociation constant Kd of 0.609 nM, a koff of 0.000156 s⁻¹ and a kon of 257000 M⁻¹ s⁻¹.

B4: Hab108.62 (antibody, V domains shown)
VH: EVTLKESGPVLVKPTETLTLTCTVSGFSLSSYGIQWIRQPPGKLLEWLAVIWSGGSADYNAAFISRLTISKDTSKSQVVLTMTNMDPVDTATYYCAGQYGSVWGQGTLVTVSS
VL: DIQMTQSPSSLSASVGDRVTITCRASQDIGDRLNWLQQKPGGAIKRLIYATSSLDSGVPKRFSGSGSGTEYTLTISSLQPEDFATYYCLQYAGSWTFGGGTKVEIK
notes: VL6 + VH2; full-length antibody
For B4, in test [2], the dissociation constant Kd stood at 0.382 nM, the koff was determined as 8.68e-05 s⁻¹ and the kon is 227000 M⁻¹ s⁻¹.

B5: Hab108.63 (antibody, V domains shown)
VH: EVTLKESGPVLVKPTETLTLTCTVSGFSLSSYGIQWVRQPPGKLLEWLGVIWSGGSADYNAAFISRLTISKDTSKSQVVLTMTNMDPVDTATYYCAGQYGSVWGQGTLVTVSS
VL: DIQMTQSPSSLSASVGDRVTITCRASQDIGDRLNWLQQKPGGAIKRLIYATSSLDSGVPKRFSGSGSGTEYTLTISSLQPEDFATYYCLQYAGSWTFGGGTKVEIK
notes: VL6 + VH3; full-length antibody
In test [2], B5 registered a Kd of 0.513 nM, a koff of 0.000117 s⁻¹ and a kon of 228000 M⁻¹ s⁻¹.
